In the nanobody polyreactivity screen of Harvey et al. (2022):

Test: yeast display, Sf9 membrane polyspecificity reagent, FACS + sequencing; frameworks hold sequencing errors
Outline: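 A nanobody's polyreactivity label depends on the gate it was sorted from. Yeast display cells were stained with 10% biotinylated, detergent-solubilized Sf9 membrane reagent for 1 hour at 4 °C, enriched on streptavidin microbeads and sorted by FACS. The low and high (top ~1%) gates were set on anti-HA fluorescence for expression and streptavidin fluorescence for reagent binding.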
For “QVQLVESGGGLVQAGGSLRLSCAASGFTFVAYAMGWYRQAPGKERELVAAISRRGGPTYYADSVKGRFTISRDNAKYTVYLQMNSLKAEDTAVYYCAAGWKAFDQRRTGRLIRLLGQGTQVTVSS”, the “polyreactivity (PSR sort gate)” value was “high polyreactivity”.
In the case of “QVQLVESGGGLVQAGGSLRLSCAASGFTFVAYAMGWYRQAPGKERELVAAITWSGSRTYYADSVKGRFTISRDNAKNTVYLQMNSLKPEDTAVYYCAAGKTEGHYGYWGQGTQVTVSS”, the “polyreactivity (PSR sort gate)” value was “high polyreactivity”.
In the case of “QVQLVESGGGLVQAGGSLRLSCAASGFTFVAYAMGWYRQAPGKERELVAAITWSGSRTYYADSVKGRFTISRDNAKNTVYLQMNSLKPEDTAVYYCAARKTEGHYGYWGQGTQVTVSS”, the “polyreactivity (PSR sort gate)” value was “high polyreactivity”.
In the case of “QVQLVESGGGLVQAGGSLRLSCAASGFTFVGNAMGWYRQAPGKERELVATITSGGNTKYADSVKGRFTISRDNAKNTVYLQMNILKPEDTAVYYCAADSDSFWGVPSYYWGQGTQVTVSS”, the “polyreactivity (PSR sort gate)” value was “low polyreactivity”.
With “QVQLVESGGGLVQAGGSLRLSCAASGFTFVGNTMGWYRQAPGKERELVAAIRGRDGRTYYADSVKGRFTISRDNEKNTVYLQMNSLKPEDTAVYYCNVDVKYSVRSEFDYWGQGTQVTVSS” the “polyreactivity (PSR sort gate)” value was “low polyreactivity”.
In the case of “QVQLVESGGGLVQAGGSLRLSCAASGFTFVGYAMGWYRQAPGKESELVAAITSSGGSTYYADSVKGRFTISRDNAKNTVYLQMNSLKPEDTAVYYCAAPAPVLSTQKRFDSWGQGTQVTVSS”, the “polyreactivity (PSR sort gate)” value was “low polyreactivity”.
With “QVQLVESGGGLVQAGGSLRLSCAASGFTFVGYVMGWYRQAPGKERELVAAISRRGRSTYYADSVKGRFTISRDNAKNTVYLQMNSLKPEDTAVYYCNKRWSSKSVQYDYWGQGTQVTVSS” the “polyreactivity (PSR sort gate)” value was “high polyreactivity”.
For “QVQLVESGGGLVQAGGSLRLSCAASGFTFVPHTMGWYRQAPGKERELVAGINYGVGSTYYADSVKGRFTISRDNAMNTVYLQMNSLKPEDTAVYYCAADIVYLYGLLYYWGQGTQVTVSS”, the “polyreactivity (PSR sort gate)” value was “low polyreactivity”.
In the case of “QVQLVESGGGLVQAGGSLRLSCAASGFTFVPYAMGWYRPAPGKERELLAAIDFDDATTYYADSVKGRFTISRDNAKNTVYLQMNSLKPEDTAVYYCAAVYYRRSYQGGYEYWGQGTQVTVSS”, the “polyreactivity (PSR sort gate)” value was “high polyreactivity”.
For “QVQLVESGGGLVQAGGSLRLSCAASGFTFVPYTMGWYRQAPGKERELVPRINTSGGGTYYADSVKGRFTISRDNAKNTVYLQMNSLKPEDTAVYYCAARRNYRAQPKTRWTGYYYWGQGTQVTVSS”, the “polyreactivity (PSR sort gate)” value was “high polyreactivity”.
For “QVQLVESGGGLVQAGGSLRLSCAASGFTFVRYAMGWYRQAPGKERELVAAISRRGGSTYYADSVKGRFTISRDNAKNTVYLQMNSLKPEDTAVYYCNALPRPSYPFDYWGQGTQVTVSS”, the “polyreactivity (PSR sort gate)” value was “high polyreactivity”.
For “QVQLVESGGGLVQAGGSLRLSCAASGFTFVRYAMGWYRQAPGKERELVAVISRSGGSTNYADSVKGRFTISRDNAKNTVYLQMNSLKPEDTAVYYCAASLQYRRLVKGGDYWGQGTQVTVSW”, the “polyreactivity (PSR sort gate)” value was “high polyreactivity”.
In the case of “QVQLVESGGGLVQAGGSLRLSCAASGFTFVRYTMGWYRQAPGKERELVAVIRRGGSTYYADSVKGRFTISRDNAKNTVYLPMKSLKPEDTAVYYCNALSALAVEDGYWGQGTQVTVSS”, the “polyreactivity (PSR sort gate)” value was “low polyreactivity”.
In the case of “QVQLVESGGGLVQAGGSLRLSCAASGFTFVRYTMGWYRQAPGKERELVAVIRRGGSTYYADSVKGRFTISRDNAKNTVYLQMNSLKPEDTAVYYCNALSALAVEDGYWGQGTQVTVSS”, the “polyreactivity (PSR sort gate)” value was “low polyreactivity”.
For “QVQLVESGGGLVQAGGSLRLSCAASGFTFVSYAMGWYRQAPGKERELVAAISKRGGSTSYADSVKGRFTISRDNAKNTVYLQMNSLKPEDTAGYYCAARYGSSYSWSNYWGQGTQVTVSS”, the “polyreactivity (PSR sort gate)” value was “high polyreactivity”.
In the case of “QVQLVESGGGLVQAGGSLRLSCAASGFTFVVYDMGWYRQAPGKESELVAVINNSGGSTYYADSVKGRFTISRDNAKNTVSLQMNSLKPEDTAVYYCATRTPVWVNTESDYWGQGTQVTVSS”, the “polyreactivity (PSR sort gate)” value was “low polyreactivity”.
In the case of “QVQLVESGGGLVQAGGSLRLSCAASGFTFVYYAKGWYRQAPGKERELVATISGNGGRTYYADSVKGRFTISRDNAKNTVYLQMNSLKPEDTAVYYCAALLYIRSVGYDYWGQGTQVTVSS”, the “polyreactivity (PSR sort gate)” value was “low polyreactivity”.
